Among the data in article PMC11261448 are ratio to parent values, retold here.

The target of the experiment is T1, TOP-2 [R828C]::3xFLAG, Q23670.
T1 chain: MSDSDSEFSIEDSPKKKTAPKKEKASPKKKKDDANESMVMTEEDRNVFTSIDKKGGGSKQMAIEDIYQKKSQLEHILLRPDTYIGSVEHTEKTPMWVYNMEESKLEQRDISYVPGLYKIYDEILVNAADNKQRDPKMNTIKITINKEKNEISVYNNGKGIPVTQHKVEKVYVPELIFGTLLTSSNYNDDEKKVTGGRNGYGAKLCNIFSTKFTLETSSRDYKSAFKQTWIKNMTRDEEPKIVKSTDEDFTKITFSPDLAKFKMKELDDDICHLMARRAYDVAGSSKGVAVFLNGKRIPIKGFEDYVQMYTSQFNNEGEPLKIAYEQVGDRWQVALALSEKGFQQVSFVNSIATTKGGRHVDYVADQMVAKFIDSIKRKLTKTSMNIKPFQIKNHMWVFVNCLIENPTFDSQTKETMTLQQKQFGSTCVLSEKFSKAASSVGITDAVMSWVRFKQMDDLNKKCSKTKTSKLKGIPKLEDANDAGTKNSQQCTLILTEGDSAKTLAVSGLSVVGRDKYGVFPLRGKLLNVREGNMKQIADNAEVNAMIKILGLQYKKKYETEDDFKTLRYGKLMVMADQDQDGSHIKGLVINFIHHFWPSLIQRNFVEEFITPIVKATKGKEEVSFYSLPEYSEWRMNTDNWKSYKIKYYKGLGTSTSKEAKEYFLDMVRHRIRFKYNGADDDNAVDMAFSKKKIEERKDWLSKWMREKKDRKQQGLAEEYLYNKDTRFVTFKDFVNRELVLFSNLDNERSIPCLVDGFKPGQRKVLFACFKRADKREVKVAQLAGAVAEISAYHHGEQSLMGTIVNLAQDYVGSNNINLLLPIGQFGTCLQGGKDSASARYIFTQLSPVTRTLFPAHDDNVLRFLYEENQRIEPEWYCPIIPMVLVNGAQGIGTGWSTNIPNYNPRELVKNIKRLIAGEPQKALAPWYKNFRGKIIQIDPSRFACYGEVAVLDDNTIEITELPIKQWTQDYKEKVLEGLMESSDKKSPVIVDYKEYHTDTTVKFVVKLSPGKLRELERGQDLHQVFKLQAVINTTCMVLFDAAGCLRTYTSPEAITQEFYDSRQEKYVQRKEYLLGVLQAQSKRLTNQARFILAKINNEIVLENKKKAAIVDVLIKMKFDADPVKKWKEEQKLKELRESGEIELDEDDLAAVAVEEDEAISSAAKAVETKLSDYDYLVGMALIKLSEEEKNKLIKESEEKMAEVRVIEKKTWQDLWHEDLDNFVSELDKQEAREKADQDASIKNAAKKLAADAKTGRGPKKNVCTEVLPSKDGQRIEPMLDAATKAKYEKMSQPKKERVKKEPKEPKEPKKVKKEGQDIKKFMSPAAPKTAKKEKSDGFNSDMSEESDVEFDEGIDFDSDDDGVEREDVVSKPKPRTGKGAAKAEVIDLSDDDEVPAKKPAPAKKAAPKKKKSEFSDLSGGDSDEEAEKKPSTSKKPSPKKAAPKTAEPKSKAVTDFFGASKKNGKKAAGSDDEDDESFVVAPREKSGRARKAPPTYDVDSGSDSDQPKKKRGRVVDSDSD
Nature of the experiment: co-immunoprecipitation (anti-FLAG magnetic agarose beads) with anti-RFP immunoblot, band quantification. Conditions: chain shown with the change;; parent: est. 1.0; read off a plot. (In general: A western blot detects proteins with antibodies after separation by electrophoresis.)

B1: m1; m2 TDPT-1:G117R; TOP-2:R828C (protein)
chain: MSNSDDEIQEIEAKRQKMSQEDSEVEIEILDEPEQGKLKNSSMSDEQKLHEFAIITATDEAFAQSILQDVDWDLKKALDVFYGSEAFAEARSAAVMGASSSMASSGAAVMTAEDLKRFEVSVMSWNIDGLDGRSLLTRMKAVAHIVKNVNPDILFLQEVVDRDLAPIDKLQSLYKIYYSNKGCQYYTAILVSKMFDVEKHDVIHFQNSGMYRTLQILEGSIGGLKVFLLNTHLESTREHRPQRCAQFGFCMDKVREIIAQNPGALVFFGGDLNLRDEEVSRVPDGVKDAWEAAGSDNKTKFTWDTFKNDNKQGFHGAKMRFDRLYWSGPLDKVKFTLEGRQRIRSCLCFPSDHWAINATFFA
Consider B1, for which the ratio to parent came to 0.33.
